Measurements as given in patent publication US20100254992A1 (published 2010).

Columns and labels:
human Eotaxin 1 = human Eotaxin 1 (human, UniProt P51671 24-97); assay: BioVeris solution equilibrium titration
Experimental: Solution Equilibrium Titration (SET) Method for KD Determination and Cross-Reactivity Studies Using BioVeris. Affinity determination in solution was basically performed as described in the literature (Friguet et al., 1985). In order to improve the sensitivity and accuracy of the SET method, it was transferred from classical ELISA to ECL based BioVeris technology (Haenel et al., 2005, accepted for publication in Analytical Biochemistry). 1 mg/ml goat-anti-human (Fab)₂ or goat-anti-mouse IgG, Fc fragment specific antibodies (Jackson Immuno Research) were labelled with BV-tag™ NHS-Ester (Bioveris Europe, Witney, Oxfordshire, UK) according to manufacturer's instructions. The experiments were carried out in polypropylene microtiter plates and PBS pH 7.4 with 0.5% BSA and 0.02% Tween 20 as assay buffer. Unlabeled antigen was diluted in 4ⁿ series: For human and cyno MCP-1 a concentration range of 10 pM to 40 nM and for cross-reactivity controls (Eotaxin and MCP-2) a concentration range of 40 pM to 160 nM was chosen. Wells without antigen were used to determine Smax values. After addition of 100 pM Fab or IgG (final concentration in 75 μL final volume), the mixture was incubated for 2 hours at RT. […]
Specificity Testing Using BioVeris. Beside the affinity also the specificity, especially the cross-reactivity to Eotaxin and MCP-2, was analyzed in solution equilibrium titration (SET) using BioVeris. […]

human Eotaxin 3 = biological target: T1, human Eotaxin 3 (human, UniProt Q9Y258 24-94); assay: Biacore, IgG capture mode
T1 sequence (looked up): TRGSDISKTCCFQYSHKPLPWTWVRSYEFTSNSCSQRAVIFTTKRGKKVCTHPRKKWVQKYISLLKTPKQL

human Eotaxin 2 = biological target: T2, human Eotaxin 2 (human, UniProt O00175 27-104, limits assumed); assay: Biacore, IgG capture mode
T2 sequence (looked up): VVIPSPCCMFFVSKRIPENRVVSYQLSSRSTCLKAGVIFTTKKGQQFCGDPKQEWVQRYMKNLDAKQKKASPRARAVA

human MCP-4 = biological target: T3, human MCP-4 (human, UniProt Q99616 24-98, limits assumed); assay: Biacore, IgG capture mode
T3 construct: also called CCL13

human MCP-3 = biological target: T4, human MCP-3 (human, UniProt P80098 24-99); assay: Biacore, IgG capture mode
T4 construct: also called CCL7
T4 sequence (P80098 24-99 limits assumed): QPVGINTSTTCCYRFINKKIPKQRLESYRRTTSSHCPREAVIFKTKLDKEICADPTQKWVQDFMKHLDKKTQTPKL

Chain of human Eotaxin 1 (P51671 24-97 limits assumed): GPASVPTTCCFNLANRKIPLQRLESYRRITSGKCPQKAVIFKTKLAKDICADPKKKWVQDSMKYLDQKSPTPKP
T3 sequence (Q99616 24-98 limits assumed): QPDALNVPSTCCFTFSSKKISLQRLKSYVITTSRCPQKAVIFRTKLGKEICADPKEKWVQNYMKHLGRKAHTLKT

B1: MOR03790 IgG1 (antibody, V domains shown)
VH: QVELVQSGAEVKKPGSSVKVSCKASGGTFSSYGISWVRQAPGQGLEWMGGIIPIFGTANYAQKFQGRVTITADESTSTAYMELSSLRSEDTAVYYCARYDGIYGELDFWGQGTLVTVSS
VL: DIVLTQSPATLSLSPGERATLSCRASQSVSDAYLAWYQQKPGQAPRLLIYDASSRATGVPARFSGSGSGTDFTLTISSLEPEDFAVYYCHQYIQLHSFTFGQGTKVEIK
notes: Human IgG1; also called MOR3790 IgG1; MOR3790k IgG
Q: Which results are given for B1?
A: binding result (human Eotaxin 1): no binding (tested: 40 pM to 160 nM); binding result (human Eotaxin 3): no binding (tested: 100 nM); binding result (human Eotaxin 2): no binding (tested: 100 nM); binding result (human MCP-4): no binding (tested: 100 nM); binding result (human MCP-3): no binding (tested: 100 nM)
